# Results: paper PMC9701752
# B1: PTPRJ transmembrane domain construct for the AraTM assay, wild type (five extracellular residues, putative TMD, 20 cytoplasmic juxtamembrane residues) [human] / FLT3 transmembrane domain construct for the AraTM assay (five … (parent)
# chain 1: QDPGVICGAVFGCIFGALVIVTVGGFIFWRKKRKDAKNNEVSFSQIKP
# chain 2: QDNISFYATIGVCLLFIVVLTLLICHKYKKQFRYESQLQMVQVTG
# Variants of: B1
# Assay: DN-AraTM assay
# Conditions: with FLT3 transmembrane domain construct for the AraTM assay (five extracellular residues, putative TMD, 20 cytoplasmic juxtamembrane residues); FLT3-AraC co-expressed with PTPRJ TMD-AraC* competitor; n=9; parent: 0.8; read off a plot
row,response (normalized GFP signal (FLT3 alone = 1)),Variant
1,0.5,chain 1 G8L
2,0.55,chain 1 G16L
3,0.56,chain 1 G12L
